These results are taken from a protein production outcome set (Wang et al. 2014).

This series in a line: label from the status in PepcDB records.

For “TIDRGIQTQIESLVERWNSEFKRSDIRNLAILVIDIRTNQAIAYCGNVHFDKEQSGNQVDVIRSPRSTGSILKPFLYYAMLQEGEILPNTLLPDIPVNINGFTPQNFNLQFEGAVPASEAIARSLNIPSVTMLQRYGVPKFHSFLKQIGLTTLNRPSSHYGLSLILGGAEATLWDITSAYANMGRSLNRLPQFPCTLLLSDSTSVHRPSFQSGAVWQTFDAIKEVNRPEEIDWRTIPSMQTIAWKTGTSYGFRDAWAVGVTPKYAVGVWVGNATGEGKPGLVGARTAGPVLFDVFNLL”, the protein production entry was “failed”.
As for “TKDFTWQTDWTFSLNNEKIKELAGGATYDSTGPWMVGEPLNSFYDFQYDRIWQNTQEDNHLMDVYRSLGLTFLPGQYKIVDQ”, the protein production entry is on record as “failed”.
For “TKEHRAAARKIAGESFVLLKNEGLSPTLAPVLPLSPTGTIAVIGPLANTRSNMPGTWSVAAVLDKSPSLVEGLTEWVGNQGKILYAKGSNLIGDAAYEERATMFGRSLNRDNRTDQQLLDEALKIASQADVIVAALGESSEMSGESSSRTNLNLPDVQHTLLEALLKTGKPVVLVLFTGRPLVLNWEQEHVPAILNVWFGGSEAGPAIGDVLFGAVNPGGKLTMTFPKSVGQIPLYYAHKNTGRPLKEGKWFEKFRSNYLDVDNDALYPFGYGLSYTTF” the value was “failed”; for “TKKDVHDLFLNHVNSNAVKTRKMMGEYIIYYDSVVIGGLYDNRLLVKATKSVRHQLQDNTLVSPYPGAKEMILIPDITEAINLTNLFELIKNDLKN”, “failed”.
Next, “TLEQLPSAQSTLVSLDANNGALRALVGGFSFTANKFNRATQARRQPGSSFKPFVYSAALEKGFNPASIVPDAPVIFRDRRGHTWSPQNDDGKFQGPMRIRDALVQSRNLVSVRLLDAIGIDFARNYITQFGFEENEIPPNLSMSLGTASLTPLSIARGYAVFANGGFRIDPWLIDEIHDREHKLIFKNNPKVACSSCTSANTNVTQSTSHLVDGFNFGAPTKTEPSKPVKNNNEPTQTIPSPDPNTPMAPRAIDERVVFQLVSMMRDVVLRGTATAARSLNRQDIAGKTGSTNEHRDAWFSGFGGPYVTTVWVGRDDFQSLGYREYGGKAALPIWIEYMRTALKDKPIARN”: “failed”; “TLEWPELLQQCEQLNKPNQINLNPALLWQCQGVGSAPPASNLRESRIKAVLAINPVTNPIFGPDGMKNLAVPTLIVAGSKDIFAPPVPEQIIPFSLIEGVNKYLLLVQNGTHLSFLEDTDNLPEKIVGPGQDLAYTYMKSLGLAFFDLYLQQDSSFKPYLTDSVVQQMSQEPLPLQLVPSL”: “failed”; “TLGKETKTTVHKFGLEPPSELIQKQLRANLDDDIWEVIRSRKIDGEHVILDKDYFFRKHVPHLTKEICENSIYEYIEGELGLSISYAQKEIVAEPCTDEDRELLDLRGYDHMVVVRNYVFLEDTSLFQYTESRHRLDKFRFVDFARRGK”: “not failed”.
Consider “TNPQAVIGDSPTTSATQSKAVVVEFSDFQCPYCAKAHDTLKQLLAKHPGEITLVYKHLPLIPIHNEAMPAAKAAWAATQQGKFWEYHDALFSNQKQLGEALYLDIAKKLNLDLEKFNSDRLLADAAISKDIQIAQKLAIAGTPFFIMNSKTFSGGIDLSEIENKL”, for which the protein production result is reported as “failed”.
For “TPLLAILFIAQVSGSGRRVGVVGWPDLNYAGVLGYGGCYERIFAVPQQERTSLRVVTALAHGCDLVITRAGPTPRTYTPLQTQRFRNSLRSDAGCVIMMGDHVVSPAARLASAVVGYHGIGKGTGRIKAVEITVTGIAKGFYRTSRVIVGKHIAPAAEKTTMK” the value was “failed”.
For the sequence “TRRIMQLVFTDVTKHKEYEETLRKEQQVVQDILDFQSSIVLVAGSDEGVLSANRSALDFFGFRDVKEFRMHYRCICEAFIDREGFLKNRHEAWLHEALLANQTGRDSKAIIKDRHSGEERIFVVKVGRYPRDSHKFIVSLTD”, the protein production result is given as “failed”.
For “TSKQRYSGKVHLCVARYSYNPFDGPNENPEAELPLTAGKYLYVYGDMDEDGFYEGELLDGQRGLVPSNFVDFVQDNESRLAST” the value was “not failed”.
For “TSVKEFAMKHDHFVVQSPDKPAQQLLLLFHGVGDNPVAMGEIGSWFAPLFPDALVVSVGGAEPSGNPAGRQWFSVQGITEDNRQARVDAIMPTFIETVRYWQKQSGVGANATALIGFSQGAIMALESIKAEPGLASRVIAFNGRYASLPETASTATTIHLIHGGEDPVIDLAHAVAAQEALISAGGDVTLDIVEDLGHAIDNRSMQLALDHLRYTIPKHY” the value was “failed”; for “TVASRLSDTKAAGEVKALDDFYKMLQHEPDRAFYGLKQVEKANEAMAIDTLLISDELFRHQDVATRSRYVRLVDSVKENAGTVRIFSSLHVSGEQLSQLTGVAAILRFPVP”, “not failed”; for “TVDLNMQRRAEETVQKAFQQARSRGLRADQIAVAAVDPRTHFVKVLVGGRDYEESQFNRAIQSQRQPGSAFKPFVYYSAFASGNYTPFSTIDDSPVSYPDGNGTYSPQNYGGSFSGTVSLYDALVTSKNVPAVKLGKAVGLEKVIELCRLLGIESPLQPVISLPLGAVGISPLEMASAYATFASNGWQSETTLILRVTDSQGNVLLDNTPQPRLVLDPWATASLTTVLQGVVNGGTGQAANLGDRPAAGKTGTTSSERDVWFVGYVPQLAAAVWIGNDDYRPMGTGTTGGGDAAPIWRAFMQEALKGEEPQYF”, “failed”.
Next, “TYWDVDFPRLDQRDSTLTEADHIANVRAALLEAVEMRMVADVPVGCYLSGGIDSCSILGLASAVSQGPVKAFTIGFDDARYDETPIAAEMAEATGAEQDVMRLSGRELYGHMEQTLWHTERTIYNTLAVAKYLMSRHVNSVDYKVVMTGEGSDELFGGYPAFRRDMFLHGLEDLPQSDRQDWESLLQTNNSLVQGAMLAADQVDDPDLDAVVGFTPSCLQPWLACAPLVPDLLADEHRQALVEYSPGKAIAEQLNPQQLDGRHALDKAQYVWIKTMLEGQILTWGGDRVDMANSMEARPAFLDHHLAAAAVQVPPELRIKGKTEKYVLREAMAGLLPEVLYKREKFAFMAPPAHTEPEKWAQMKQLADDYLSDEAIDAAGLLSKEGVRALFARHDDPATTDAERVQMDAVINHLLG”: “failed”; “VAGKVEARKAALREKLIDLAEAQIEAEGLASLRARELARQADCAVGAIYTHFQDLNALTLEVNGRTFARLGAAVGAVVADGQDDHPNERLIAMSHAYLAFAREHPKLWRALFDVEMRSDGPVPQWYGHAMAQLFSYITTPLAKIFPESDDAELDLMTRTLFSSVHGIVLLGLENRISGVPGEQLKTMIRLLLEQVGR”: “not failed”; “VAITDNRGVITHVNEKFCDISQYEYYELVGTTHKIINSGFHPRSFFKQMWKTIAQGNIWKGEICNRTKQGKLYWVDTTIVPLKDNDGLLKNYISIRTDITQ”: “failed”.
Regarding “VFEQELENGLRLFIIPKPGFQKTFVTYTTQFGSLDNQFKPLGQDQFVTVPDGVAHFLEHKLFEKEEEDLFTAFAEDNAQANAFTSFDRTSYLFSATDNIENNIKRLLTMVETPYFTKETVDKEKGIIAEEIKMYQEQPGYKLMFNTLRAMYQRHPIRVDIAGSVESIYDITKDDLYLCYETFYHPSNMVLFVVGDVNPEEICRIVKQH”, the protein production result was “failed”.
“VINQVESASKVIDWPLALKRSANKADLAKEMLLGLVESLPETQLSIREAIDVQDIAQIKRLVHKLNGACCYTGTPNLAKITIQLETQLKMGLSTEELEPEFLEFFEHIEQVLFAVPEALKEMSEN”: the protein production entry is “failed”.
“VIRDLQKLLASMEPSLNPGTYAFVVAPADIQIPQDQIVASVCEPEGQSLVIPEQLAHERGLPVTYSAAWITLTVHSDLAAVGLTATFAGALGQAGISCNVIAGVHHDHLFVPADQAQQAMAVLFDLQRAAA”: the protein production entry is on record as “failed”.
For “VKLVEEYIAANWNESLTIEKLVELTGMSARTVFKAFQRTRGYSPMAFAKRVRMERVRQLLLEAGGDASVGAIAVQCGFPHLGHFAKDYRKTFGENPSDTLARGRRFRGVR” the value was “not failed”; for “VKMSDKWIEIEEILSGLIGDLTIAVTVLKDYEGKAFLREPQHQTKRQCIWRLCVYSIVINCRKYVELNQKYGKEFQALIPGHNHIRGVYNNEINKNTAIKKLRNHCVAHVSDKSKYLKPAEVQEEIIKMFDGNFADEFLDWICPDNISTTDKSESLVGVIELLRDAVSAKL”, “not failed”; for “VLEVTQKATPNPSLLAAEDQVPCEKCGSLVPVWDMPEHMDYHFALELQKSFLQPHSSNPQVVSAVSHQGKRNPKSPLACTNKRPRPEGMQTLESFFKPLTH”, “failed”.
Next, “VLTMPLVTSISQLNEPITLVSYTMGNVNGVPVNNVRKEHFTTWALVLSQYLSEVKASVGTKLEDTVTFVVRYDQPETILNSWRIEWQEKQYDIVKLTPDTAKKQWTTIIGKPVANK”: “not failed”; “VPRIAEVRDAAEPSSEEQRARHVRMLEAAIELATEKELARVQMHEVAKRAGVAIGTLYRYFPSKTHLFVAVMVDQIDRMGVGFKKSAPPGESPQDAVYNVLVRATRGLLRRPALSTAMIQSTSTANVASVPDAGKVDRAFRQIMLDAAGIEHPTEEDLTALRLLVQLWFGVIQSCLNGRVSIPDAESDIRRACDLLLVNLSHR”: “not failed”.
For “VQSKNPVLIEGFPGIGLVGNIASQHIIEELNMEYIGSIDSRYFPSIAVLYEGLINMPVRIYENVEHNLIIVISDIPISHSVSYDVSNALVDWAEAINVKEIASIAGIAIMDGGHKVFGAATTPEMLDKIRDKVEIFQMGTISGISGSVMAECLLRGIPAISLLGATRTQNPDPRAASSVIGVLNELYGLSISTDRLIEQAERIEIELQRLAEDVQATERKGEVKKEFPMYG” the value was “failed”; for “VRLRNLVESDRERLLIWRNSPDVSAYMYSDHKIGHEEHDHWFDVARHDPRRRYWIIEADGEPVGLANLADIDLVHRRCAWAYYLASPKVRGLGVGSFVEFQIIEYVFNQLHLNKLWCEVLISNESVWRLHELYGFQREALFRQHVMKQGHEVDVIGLGLLASDWAARR”, “failed”.
With “VTGDRAGGRSWCLRRVGMSAGWLLLEDGCEVTVGRGFGVTYQLVSKICPLMISRNHCVLKQNPEGQWTIMDNKSLNGVWLNRARLEPLRVYSIHQGDYIQLGVPLENKENAEYEYEVTEEDWETIYPCLSPK”, the protein production result is listed as “not failed”.
For “VTGSIRSKLSAIDVRQLGTVDYRTAWQLQRELADARVAGGADTLLLLEHPAVYTAGRRTETHERPIDGTPVVDTDRGGKITWHGPGQLVGYPIIGLAEPLDVVNYVRRLEESLIQVCADLGLHAGRVDGRSGVWLPGRPARKVAAIGVRVSRATTLHGFALNCDCDLAAFTAIVPCGISDAAVTSLSAELGRTVTVDEVRATVAAAVCAALDGVLPVGDRVPSHAVPSPL” the value was “not failed”.
Turning to “VTRAIILAHGYATASSIANVANRLLKSQLFESFDMPLDVTPEAIANQVMAYIESHALASGLIILVDMGSLNAIHRHFNRRLSTPMAIINNVSTGMAMYVGERILQGVMLEDIVREIGDDLAVEHQLYYPQTDKP”, the protein production result is “failed”.
For “VVEFTTCPDKPGIPVKPSVKGKIHSHSFKITWDPPKDNGGATINKYVVEMAEGSNGNKWEMIYSGATREHLCDRLNPGCFYRLRVYCISDGGQSAVSESLLVQTPAV”, the protein production entry is on record as “not failed”.
Next, “VVENYETQFVTFVESEMEQDLAHDLNHVFRVVKTAKLLSKIEGAMLEVVLPAAYLHDCFSFPKNHPNKAESSRIAADKALEFLNEIGYPNEYHDAIKHAIIAHSFSAKVQPDTLEAKVVQDADRLDALGAIGIARCIQVSTNLGVGLYDATDPFCGTREPNDRVNTVDHFYTKLFKLPEIMHTASAKVEAEKRMKFMKAYLIQLGMEIEPYS”: “failed”.
